Test [1] deals with MP-3fc (miniACE2-(GGGGS)3-coiled-coil, trivalent). The experiment in a line: SEC.
For test [2], the target named is MP-3ff (miniACE2-(GGGGS)3-foldon, trivalent) (bacteriophage T4). The experiment in a line: SEC.
For test [3], the target named is MP-3rc (miniACE2-(EAAAK)3-coiled-coil, trivalent). The experiment in a line: SEC.
For test [4], the target named is MP-3rf (miniACE2-(EAAAK)3-foldon, trivalent) (bacteriophage T4). The test can be described thus: SEC.
The target of test [5] is MP-5fc (miniACE2-(GGGGS)5-coiled-coil, trivalent). The experiment in a line: SEC.
Test [6] concerns the target RBD of the S protein of SARS-CoV-2 (Wuhan-Hu-1) (SARS-CoV-2 (Wuhan-Hu-1)) (UniProt P0DTC2). The test can be described thus: BLI; Octet RED96e; RBD (Wuhan-Hu-1) immobilised on HIS1K biosensors; analyte 50-3.125 nM miniACE2 or 100-3.125 nM MP-5ff in 1x PBS, 0.02% Tween-20, 0.1% BSA; association 1 min, dissociation 3 min; 1:1 binding model.
The target of test [7] is MP-5ff (miniACE2-(GGGGS)5-foldon, trivalent) (bacteriophage T4). The test can be described thus: SEC.
Test [8] concerns the target MP-5rc (miniACE2-(EAAAK)5-coiled-coil, trivalent). The test can be described thus: SEC.
In test [9] the target is MP-5rf (miniACE2-(EAAAK)5-foldon, trivalent) (bacteriophage T4). The test can be described thus: SEC.

Some results are limits rather than exact numbers.

On to “MP-3fc (miniACE2-(GGGGS)3-coiled-coil, trivalent) (designed binder)”, for which the stoichiometry N in test [1] was found to be 3.

For the substance “MP-3ff (miniACE2-(GGGGS)3-foldon, trivalent) (designed binder)”, the stoichiometry N in test [2] worked out at 3.

On to “MP-3rc (miniACE2-(EAAAK)3-coiled-coil, trivalent) (designed binder)”, for which the stoichiometry N in test [3] was determined as 3.

With “MP-3rf (miniACE2-(EAAAK)3-foldon, trivalent) (designed binder)”, the stoichiometry N in [4] is 3.

The substance “MP-5fc (miniACE2-(GGGGS)5-coiled-coil, trivalent) (designed binder)” gave a stoichiometry N in test [5] of 3.

With “MP-5ff (miniACE2-(GGGGS)5-foldon, trivalent) (designed binder)”, in test [6], the dissociation constant Kd is less than 0.001 nM and the off-rate (koff) was less than 1e-07 s⁻¹. Also, in test [7], the stoichiometry N is 3.

With “MP-5rc (miniACE2-(EAAAK)5-coiled-coil, trivalent) (designed binder)”, the stoichiometry N in [8] is 3.

For “MP-5rf (miniACE2-(EAAAK)5-foldon, trivalent) (designed binder)”, in test [9], the stoichiometry N came to 3.

In the case of “miniACE2 (microprotein LCB3) (designed binder)”, in test [6], the Kd stood at 1.03 nM and the koff worked out at 0.000986 s⁻¹.

The values are drawn from article PMC10858482.
